According to patent US12644128B2, “Method for producing HSL protein having catalytic activity for 2-oxoglutaric acid-dependently oxidizing 4-HPPD inhibitor” (National Agriculture and Food Research Organization, priority 2017, dated 2026):

Experiments:
Assay type in all cases: biochemical
[1] = 4-HPPD inhibitor decomposition activity by HPLC, substrate tefuryltrione
Text: (§1) Then, the decomposition reaction of a 4-HPPD inhibitor was examined in the presence of divalent iron ions, 2-oxoglutarate, and molecular oxygen in a test tube by a method described later using the HIS1 protein prepared by this cell-free protein synthesis system.
(§2) Here, in commercially-available wheat germ extracts, dithiothreitol (DTT) is used as a reducing agent and a protein synthesizing reaction liquid also contains DTT. It was confirmed in advance by liquid chromatography that under the coexistence of divalent iron ions and ascorbic acid, which is a stabilizer for the divalent iron ions, DTT generated radical compounds and secondarily affected the enzyme reaction of HIS1 proteins. For this reason, in the present Example, an unreported protein synthesizing reaction system using Tris (2-carboxyethyl) phosphine (TCEP) as a reducing agent instead of DTT was newly constructed, with which the synthesis of HIS1 proteins and the like was conducted to examine the 4-HPPD inhibitor decomposition activity of these. The decomposition activity was analyzed on the reaction liquid of the protein and the 4-HPPD inhibitor using a high-performance liquid chromatography (mobile phase; 0.5% acetic acid water:acetonitrile=65:35, flow rate; 1 mL/min, feeding; isocratic, column; CAPCELL PAK ADME S5). […]
(§3) Cell-free protein synthesis was conducted without adding [^14C]-Leucine Leucine under the same conditions as those in the estimation of the synthesized amount to estimate the protein concentration of this translation reaction liquid from the above-described estimation. […] The amounts of the solution before and after the buffer exchange were measured and the estimated protein concentration was corrected. […]
(§4) Note that the 5-point scale of the decomposition activity in each of FIGS. 12 to 17 is based on a relative value of the degree of decrease in a substrate-derived peak area detected by HPLC where the degree of decrease in the HIS1 protein was designated by 5. […]

[2] = 4-HPPD inhibitor decomposition activity by HPLC, substrate sulcotrione
Text: as §1, §2, §3, §4

[3] = 4-HPPD inhibitor decomposition activity by HPLC, substrate BBC-OH; details: for BBC-OH decomposition activity: cell-free synthesized protein, FeCl2, ascorbic acid, 2-oxoglutarate, 30° C. for 3 hours, HPLC
Text: as §1
Here, in commercially-available wheat germ extracts, dithiothreitol (DTT) is used as a reducing agent and a protein synthesizing reaction liquid also contains DTT. It was confirmed in advance by liquid chromatography that under the coexistence of divalent iron ions and ascorbic acid, which is a stabilizer for the divalent iron ions, DTT generated radical compounds and secondarily affected the enzyme reaction of HIS1 proteins. For this reason, in the present Example, an unreported protein synthesizing reaction system using Tris (2-carboxyethyl) phosphine (TCEP) as a reducing agent instead of DTT was newly constructed, with which the synthesis of HIS1 proteins and the like was conducted to examine the 4-HPPD inhibitor decomposition activity of these. The decomposition activity was analyzed on the reaction liquid of the protein and the 4-HPPD inhibitor using a high-performance liquid chromatography (mobile phase; 0.5% acetic acid water:acetonitrile=65:35, flow rate; 1 mL/min, feeding; isocratic, column; CAPCELL PAK ADME S5).
Then, the amounts of the synthesized proteins obtained in Examples 1 to 4 as described above were estimated as described below, followed by the analysis on the 4-HPPD inhibitor decomposition activities.
Cell-free protein synthesis was conducted without adding [^14C]-Leucine Leucine under the same conditions as those in the estimation of the synthesized amount to estimate the protein concentration of this translation reaction liquid from the above-described estimation. Then, 100 μl of the translation reaction liquid was subjected to buffer exchange to a basic translation buffer (30 mM HEPES-KOH (pH=7.8), 100 mM KOAc) by using the illustra MicroSpin G-25 column (manufactured by GE Healthcare). The amounts of the solution before and after the buffer exchange were measured and the estimated protein concentration was corrected.
An enzyme reaction liquid was prepared by mixing 250 mM of HEPES-KOH (pH 7.0) with a mixture liquid, which contained 0.25 mM of FeCl2, 1.5 mM of ascorbic acid, 1.5 mM of 2-oxoglutarate, and 0.75 mM of a substrate, and a translation reaction liquid, which contained a synthesized enzyme protein, in a proportion of 40% and 60%, respectively. After incubation at 30° C. for 3 hours, 100% methanol in the same amount as the enzyme reaction liquid was added and sufficiently mixed, followed by being left to stand for 5 minutes on ice. This was subjected to centrifuge separation (20, 400 g, 20 minutes, 4° C.) and the supernatant was passed through Cosmonice Filter W (0.45 μm) (manufactured by Nacalai Tesque, Inc.) to obtain a sample for high-performance liquid chromatography. The analysis on the substrate and the product before and after the enzyme reaction was conducted by loading a column_Pro C18 (150×4.6 mm I.D.) (manufactured by YMC Co., Ltd.) on a high-performance liquid chromatography device_ELITE LaChrom L-2000 series (manufactured by Hitachi, Ltd.). Elution was conducted at a flow speed of 1 mL/min and a column temperature of 40° C. under solvent conditions of acetonitrile:water (1% acetic acid)=55:45 or 50:50 (BBC-OH), acetonitrile:water (1% acetic acid)=45:55 (Sulcotrione), acetonitrile:water (1% acetic acid)=45:55 (Mesotrione), acetonitrile:water (1% acetic acid)=55:45 or 50:50 (tefryltrone), and acetonitrile:water (1% acetic acid)=55:45 or 50:50 (Tembotrione), respectively, and the compound was detected at an ultraviolet wavelength of 286 nm.
as §4

[4] = cell-free synthesized protein, FeCl2, ascorbic acid, 2-oxoglutarate, 30° C. for 3 hours, HPLC

Molecule | tefuryltrione decomposition activity [1, 4] | modification product of tefuryltrione by mass analysis ([1]; mass analysis) | sulcotrione decomposition activity [2, 4] | modification product of sulcotrione by mass analysis ([2]; mass analysis) | BBC-OH decomposition activity [3] | modification product of BBC-OH by mass analysis ([3]; mass analysis) | cofactor dependence of the modification of BBC-OH ([3]; not shown)
HIS1 protein: rice 2-oxoglutarate-dependent dioxygenase, typically a protein having an amino acid sequence of SEQ ID NO: 2 (protein, listed as Oryza sativa) MADESWRAPAIVQELAAAGVEEPPSRYLLREKDRSDVKLVAAELPEPLPVVDLSRLDGAEEATKLRVALQNWGFFLLTNHGVEASLMDSVMNLSREFFNQPIERKQKFSNLIDGKNFQIQGYGTDRVVTQDQILDWSDRLHLRVEPKEEQDLAFWPDHPESFRDVLNKYASGTKRIRDDIIQAMAKLLELDEDYFLDRLNEAPAFARFNYYPPCPRPDLVFGIRPHSDGTLLTILLVDKDVSGLQVQRDGKWSNVEATPHTLLINLGDTMEVMCNGIFRSPVHRVVTNAEKERISLAMLYSVNDEKDIEPAAGLLDENRPARYRKVSVEEFRAGIFGKFSRGERYIDSLRI | high decomposition activity | converted into a product with one oxygen atom added | high decomposition activity | converted into a product with one oxygen atom added | high decomposition activity | converted into a product with one oxygen atom added | only in the presence of divalent iron ions and 2-oxoglutarate
SbHSL1 protein: sorghum-derived HSL protein, typically a protein having an amino acid sequence of SEQ ID NO: 22 (protein, Sorghum bicolor) MAGESWKVPTPVKDLAALVEEPPSQFVQREEDRPGSLMLAADMPDPLPIVDLDKMSTADEATKLRSALQTWGLFLATNHGIDVSLMEDLMKASREFFNQPLQERQKYSNLREGTRFQLEGYGSDPVIAQDHILDWSDRLQLKVEPEDERNLAQWPKHPESFRDLLHEYATKTKTVMVKILRAMAKTLELDEEDFIDQIGGRPQAYARFNYYPPCPRPELVLGIKAHSDGPLLTVLLVDREVGGLQIQRENKWFNVPSIPHALVINLGDSLEIMSNGIFKSPVHRVVTNAEKERISLAMLYAVQRDNVLEPAPGLLDEKRPAKYRRITEAHFLEGVKEHFSKGMRMIETLKI | – | – | – | – | had the decomposition activity, which was less effective than that of the HIS1 protein | – | –
OsHSL2 protein: rice-derived HSL protein, typically a protein having an amino acid sequence of SEQ ID NO: 6 (protein, listed as Oryza sativa) MADEPWRLPNIVQELAAGVQEPPSRYLQDLAGGDQLAGAEIPEPIPTIDLGRLSGSDGADEAAKLRSALQNWGLFLVSNHGVETSLIDAVIEAAREFFRQPVEEKKKLSNLIDGKRFQIEGYGNDPVQTKDQILDWSDRLHLKVEPECDRNLAFWPTHPKSFRDILHEYTLKIKTVKNDILLALAKLLELDEDCLLNQFSDRAITTARFNYYSPCPRPDLVLGLKPHSDLCALTVLLTDKEVGGLQVLRDGTWYSVPAVRDYSLLINIGVTLEIMTNGTFRAPLHRVVTNAERERMSVAMFYAVDGEKEIEPVAELLGLKQQSARYRGIKGKDLLIGHYEHFSRGGRVVDSLKI | – | – | – | – | only very weak decomposition activity | – | –
ZmHSL2 protein: corn-derived HSL protein, typically a protein having an amino acid sequence of SEQ ID NO: 20 (protein, Zea mays) MAVESWTVPTPVKDLAALVDEPPSRFVQREEHRPGSLMLAADMPDPLPIVDLNKLSTADEAAKLRSALQTWGLFLATNHGIDASLMEDLMEASREFFHQPLQERQKYSNLREGTRFQLEGYGSDPVVAQDHILDWNDRLQLKVEPEDERSLAQWPKYPESFRDLLHEYASKTKSMRDRILRAMAKILELDEEEFIKQLGASPQAYARFNYYPPCPRPELVLGIKAHSDGPVLTVLLVDREVGGLQVQRENTWFNVPFVPHTLVINLGDSLEIMSNGIFKSPVHRVVTNAEKERISLAMLYAVERDNVLQPAAGLLDEKRPARYRRITEADFLEGVKEHFSKGIRMIETLKI | – | – | – | – | had the decomposition activity, which was less effective than that of the HIS1 protein | – | –
